The record followed here is the RNAGym collection of RNA variant scans (doi:10.1073/pnas.2313332121).

The labels stand for the following.
B1: TPR 5TU (parent)
chain: GGAUCUUCUCGAUCUAACAAAAAAGACAAAUCUGCCACAAAGCUUGAGAGCAUCUUCGGAUGCAGAGGCGGCAGCCUUCGGUGGCGCGAUAGCGCCAACGUUCUCAACUAUGACACGCAAAACGCGUGCUCCGUUGAAUGGAGUUUAUCAUG

This sample holds only a part of the variants without activity.

In the data set the parent is B1. The data set is described as follows: polymerase ribozyme fitness, log enrichment relative to wild type (log ratio); higher = more active; in vitro selection for triplet polymerase activity. The essentials: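 To select mutant libraries of each subunit of a heterodimeric triplet polymerase ribozyme, built by PCR and transcribed, each was annealed with a biotinylated primer, partner subunit and triplets, then incubated frozen at −7 °C. Extended constructs were gel-excised, captured on streptavidin beads and amplified by RT-PCR, in one round carried out in triplicate. Illumina sequencing of input and output libraries kept genotypes with ≥10 input reads and ≥1 read per output. Fitness is the base-2 logarithm of genotype enrichment relative to wild-type enrichment, from inverse-variance-weighted replicate averages.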
Regarding G58A C75G C125G C129A U151G, the “polymerase ribozyme fitness (log ratio)” value was ≤ -4.2.

A41U C54U C63U U82A C95G A115U: the “polymerase ribozyme fitness (log ratio)” value is ≤ -4.2.

On to A39C U53C U135C, for which the “polymerase ribozyme fitness (log ratio)” value is -3.94.

Regarding U15C C93G, the “polymerase ribozyme fitness (log ratio)” value is -2.27.

Take U7C A24U G84U C87G A107C G112U G133U: the “polymerase ribozyme fitness (log ratio)” value is ≤ -4.2.

C14U G84U A107U A147U: the “polymerase ribozyme fitness (log ratio)” value is ≤ -4.2.

As to G48A G59A G86A U104G A110U, the “polymerase ribozyme fitness (log ratio)” value was ≤ -4.2.

As for A21U U45G U55A A91U C125U C131G, the “polymerase ribozyme fitness (log ratio)” value is ≤ -4.2.

As to A91C U139G, the “polymerase ribozyme fitness (log ratio)” value was ≤ -4.2.

Take U55G A107U A122U: the “polymerase ribozyme fitness (log ratio)” value was -3.21.

For C54U G94C G124A, the “polymerase ribozyme fitness (log ratio)” value was -1.04.

With U55G C108G G133U A142C, the “polymerase ribozyme fitness (log ratio)” value is -4.19.

Take U44A C85U U139C: the “polymerase ribozyme fitness (log ratio)” value is ≤ -4.2.

As to A29U A30C A49G C57U C87A G100A G141A, the “polymerase ribozyme fitness (log ratio)” value was ≤ -4.2.

For the variant G50A C54U U55A A73G, the “polymerase ribozyme fitness (log ratio)” value was ≤ -4.2.

Turning to C14U U56G G83U C95U C116U, the “polymerase ribozyme fitness (log ratio)” value was -3.87.

On to A49C U53A C54A C87U U102C, for which the “polymerase ribozyme fitness (log ratio)” value is ≤ -4.2.

U56G G92U A97U C105U: the “polymerase ribozyme fitness (log ratio)” value was -1.61.

With A22U G50U C54U A66C A91G G92U A138G, the “polymerase ribozyme fitness (log ratio)” value is ≤ -4.2.

For the variant C57U U82A C93A G112U C116U, the “polymerase ribozyme fitness (log ratio)” value is ≤ -4.2.

For the variant U9C A22U U53G C79U, the “polymerase ribozyme fitness (log ratio)” value is ≤ -4.2.

With U15C C57U G59A G68U G84C C129A, the “polymerase ribozyme fitness (log ratio)” value was ≤ -4.2.

Regarding A16C G58C A60G G83U C116U, the “polymerase ribozyme fitness (log ratio)” value is -0.784.

For C75U G80C A107U, the “polymerase ribozyme fitness (log ratio)” value was ≤ -4.2.

Consider G84A U101A A115U A121G G124A, for which the “polymerase ribozyme fitness (log ratio)” value is ≤ -4.2.

With C79A U82G C93A G141U G152U, the “polymerase ribozyme fitness (log ratio)” value is ≤ -4.2.

In the case of A20C C57G C105G C149A, the “polymerase ribozyme fitness (log ratio)” value is ≤ -4.2.

Regarding A52G G74C C96U U144G, the “polymerase ribozyme fitness (log ratio)” value is ≤ -4.2.

As to A52G G88A C118A C123U G141C, the “polymerase ribozyme fitness (log ratio)” value was ≤ -4.2.

For the variant A3C A22U C85G, the “polymerase ribozyme fitness (log ratio)” value is -2.18.

Take G59A C85U: the “polymerase ribozyme fitness (log ratio)” value is -1.79.

As for A23C C43A A52U A119C U135G U139A G140A A142G, the “polymerase ribozyme fitness (log ratio)” value was ≤ -4.2.

As to A3U C8U C14G A19C U33A A52C G70A C79G C87G G152U, the “polymerase ribozyme fitness (log ratio)” value is ≤ -4.2.

As for A49U C103G, the “polymerase ribozyme fitness (log ratio)” value is ≤ -4.2.

For G11A U31A, the “polymerase ribozyme fitness (log ratio)” value was -0.715.

Take U78G C87G: the “polymerase ribozyme fitness (log ratio)” value is ≤ -4.2.

Take C14G C35U C95U U101A: the “polymerase ribozyme fitness (log ratio)” value is -3.82.

For the variant A17U C32U G128U, the “polymerase ribozyme fitness (log ratio)” value is ≤ -4.2.

Turning to G25C G46A U144C, the “polymerase ribozyme fitness (log ratio)” value is -4.12.

As for C35G A47C C69G U77G U82C C103G G128U U130G U151C, the “polymerase ribozyme fitness (log ratio)” value is ≤ -4.2.

A3U C93A: the “polymerase ribozyme fitness (log ratio)” value was -2.19.

Take U44A U82A: the “polymerase ribozyme fitness (log ratio)” value is -4.18.

Take C35G G58C C125U A147C: the “polymerase ribozyme fitness (log ratio)” value was ≤ -4.2.

For the variant A17U C57G C69A, the “polymerase ribozyme fitness (log ratio)” value was -2.58.

Take G94A U151A: the “polymerase ribozyme fitness (log ratio)” value was ≤ -4.2.

Take A60U A106G: the “polymerase ribozyme fitness (log ratio)” value was -0.0172.

As to A39U C69A G74C C76U C87A, the “polymerase ribozyme fitness (log ratio)” value is ≤ -4.2.

With C54G C96U, the “polymerase ribozyme fitness (log ratio)” value was -1.33.

As to C27U C57A C95U, the “polymerase ribozyme fitness (log ratio)” value was -2.1.

Regarding A12G C63U, the “polymerase ribozyme fitness (log ratio)” value was -0.0387.

On to C38A U56A G86C, for which the “polymerase ribozyme fitness (log ratio)” value was -3.01.

Take G48A G83C: the “polymerase ribozyme fitness (log ratio)” value was -1.78.

As to A39U A89G G126U, the “polymerase ribozyme fitness (log ratio)” value was -3.58.

In the case of A150U, the “polymerase ribozyme fitness (log ratio)” value stood at 1.3.

As to A21U G48A U82G C95G, the “polymerase ribozyme fitness (log ratio)” value was ≤ -4.2.

Take U33A A49C C76U G80U C149G: the “polymerase ribozyme fitness (log ratio)” value was ≤ -4.2.

Regarding A40C C69G G80A, the “polymerase ribozyme fitness (log ratio)” value is -0.716.

Turning to U4C U144G, the “polymerase ribozyme fitness (log ratio)” value came out at 0.832.

For C18U A37G U56A C87G C103U, the “polymerase ribozyme fitness (log ratio)” value is ≤ -4.2.

As to U55A A138U, the “polymerase ribozyme fitness (log ratio)” value was -3.9.

For C32U C54G G68U C75A, the “polymerase ribozyme fitness (log ratio)” value is -3.88.

For A26G U78C, the “polymerase ribozyme fitness (log ratio)” value is -3.95.

For A30G C35U U56G A66G U82G C99U A119U G126A A142C, the “polymerase ribozyme fitness (log ratio)” value was ≤ -4.2.

Consider U6C C8A U111G G143C, for which the “polymerase ribozyme fitness (log ratio)” value was ≤ -4.2.

Turning to G65C U90C, the “polymerase ribozyme fitness (log ratio)” value is ≤ -4.2.

For the variant U4G U7G U13G C43A C54U U78G G94C, the “polymerase ribozyme fitness (log ratio)” value is ≤ -4.2.

Turning to U61A A97C, the “polymerase ribozyme fitness (log ratio)” value was -1.48.

Turning to G59U C99U U104G G128U U134A G136U A138G, the “polymerase ribozyme fitness (log ratio)” value is ≤ -4.2.

Take U13C U56G A115G: the “polymerase ribozyme fitness (log ratio)” value was -2.32.

With G68C U78A, the “polymerase ribozyme fitness (log ratio)” value is ≤ -4.2.

On to U33G U55G G68A C79A G84U G136U, for which the “polymerase ribozyme fitness (log ratio)” value is ≤ -4.2.

Consider G25C G86A A122U, for which the “polymerase ribozyme fitness (log ratio)” value was ≤ -4.2.

Turning to A16C G112U A150U, the “polymerase ribozyme fitness (log ratio)” value is ≤ -4.2.

Consider C54U G59U, for which the “polymerase ribozyme fitness (log ratio)” value is 0.271.

For the variant A16C G141A, the “polymerase ribozyme fitness (log ratio)” value is -0.406.

In the case of U6G C93A, the “polymerase ribozyme fitness (log ratio)” value is -1.75.

In the case of A91G C116G, the “polymerase ribozyme fitness (log ratio)” value is -1.65.

With A37U C75U G83A A98U, the “polymerase ribozyme fitness (log ratio)” value was -2.88.

Turning to C43A C75U A106U C108U C123G G141A, the “polymerase ribozyme fitness (log ratio)” value is ≤ -4.2.

Turning to U6C C27U G50C A52G G58A C87U, the “polymerase ribozyme fitness (log ratio)” value was ≤ -4.2.

Take C35G U55A G94A U101G C131U: the “polymerase ribozyme fitness (log ratio)” value was ≤ -4.2.

C51U G70U G88A G94U A106C: the “polymerase ribozyme fitness (log ratio)” value is ≤ -4.2.

For U15A A22G C36A C72U C85U C132U, the “polymerase ribozyme fitness (log ratio)” value was ≤ -4.2.
